# T1: FcγRIIa-H131 (CD32A Protein, Human, Recombinant (167 His, His Tag)) (human, UniProt P12318 34-218, limits assumed)
# T1 construct: Bought reagent; not shown: His tag
# T1 sequence (looked up): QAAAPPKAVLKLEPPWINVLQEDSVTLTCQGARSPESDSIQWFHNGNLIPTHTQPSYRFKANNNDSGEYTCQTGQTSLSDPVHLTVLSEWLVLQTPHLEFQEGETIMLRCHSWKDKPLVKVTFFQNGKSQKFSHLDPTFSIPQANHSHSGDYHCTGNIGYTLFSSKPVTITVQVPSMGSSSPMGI
# T2: His-tagged recombinant human FAPα (R&D Systems, Cat #3715-SE) (human, UniProt Q12884 26-760)
# T2 construct: not shown: His tag
# T2 sequence (looked up): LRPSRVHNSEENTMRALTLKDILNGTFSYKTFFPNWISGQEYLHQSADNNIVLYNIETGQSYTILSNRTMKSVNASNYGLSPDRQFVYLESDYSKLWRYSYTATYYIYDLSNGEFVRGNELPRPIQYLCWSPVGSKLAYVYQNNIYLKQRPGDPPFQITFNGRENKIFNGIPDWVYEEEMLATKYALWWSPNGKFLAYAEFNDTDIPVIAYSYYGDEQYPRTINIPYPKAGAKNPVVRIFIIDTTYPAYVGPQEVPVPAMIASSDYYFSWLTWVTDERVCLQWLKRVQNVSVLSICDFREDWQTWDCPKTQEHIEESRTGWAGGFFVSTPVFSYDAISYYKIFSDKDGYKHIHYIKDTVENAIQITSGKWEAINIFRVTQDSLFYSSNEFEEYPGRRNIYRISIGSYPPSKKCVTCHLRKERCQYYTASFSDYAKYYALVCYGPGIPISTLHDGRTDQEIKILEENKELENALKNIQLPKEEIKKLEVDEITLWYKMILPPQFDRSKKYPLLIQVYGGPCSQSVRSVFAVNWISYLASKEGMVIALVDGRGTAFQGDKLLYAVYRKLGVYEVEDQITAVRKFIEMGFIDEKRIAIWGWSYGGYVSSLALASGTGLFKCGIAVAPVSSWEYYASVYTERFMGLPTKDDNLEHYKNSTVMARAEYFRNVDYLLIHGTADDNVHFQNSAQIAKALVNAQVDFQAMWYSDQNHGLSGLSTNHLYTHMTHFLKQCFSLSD
# B1: IgG1-b12 (antibody)
# heavy: not shown
# light: EIVLTQSPGTLSLSPGERATFSCRSSHSIRSRRVAWYQHKPGQAPRLVIHGVSNRASGISDRFSGSGSGTDFTLTITRVEPEDFALYYCQVYGASSYTFGQGTKLERKRTVAAPSVFIFPPSDEQLKSGTASVVCLLNNFYPREAKVQWKVDNALQSGNSQESVTEQDSKDSTYSLSSTLTLSKADYEKHKVYACEVTHQGLSSPVTKSFNRGEC
# notes: HIV gp120 antibody b12 with wild-type IgG1 Fc; also called IgG-b12
# Tests used:
# [1] = biological target: T1, FcγRIIa-H131 (CD32A Protein, Human, …); assay: SPR (Biacore 8K), His-tagged FcγRIIa-H131 captured on an anti-His chip, antibody as analyte, endpoint response against concentration
# Procedure: Binding of BisG1-FAPα-FERL/DR4-FERR to immobilized human His-tagged FcγRs and FcRn was analyzed by SPR using a Biacore 8K SPR system (Cytiva). To this end, anti-His antibodies were covalently immobilized on the surface of Biacore Series S Sensor Chip CM5 (Cytiva, Cat. #29104988) using the Amine Coupling Kit (Cytiva, Cat. #BR100050) and a His Capture Kit (Cytiva, Cat. #29234602) according to the manufacturer's instructions. To assess antibody binding to immobilized human FcγRs, aliquots of the recombinant His-tagged FcγR proteins (Table 24) were diluted in HBS EP+Buffer pH 7.4 (Cytiva, Cat. #BR100669) and used to capture the FcγR proteins on the surface of the anti-His antibody-coated sensors using a flow rate of 10 μL/min and a contact time of 60 s. Captured levels ranged from 434 to 592 RU. After three start-up cycles of HBS-EP+Buffer, concentration ranges of BisG1-FAPα-FERL/DR4-FERR or IgG1-b12 antibodies (Table 25) were injected to generate binding curves on FcγR-captured sensors (active surface). For each antibody sample, a parallel flow cell without captured FcγRs was included (reference surface), which was used for RU background correction.
# All sensorgrams were subtracted by the signal of the third start-up cycle with buffer only (mock analyte). […]
# [2] = biological target: T2, His-tagged recombinant human FAPα (R&D …); assay: BLI sandwich cross-block assay
# Procedure: Sandwich cross-block experiments were carried out while shaking at 1,000 RPM at 30° C. […] The activated AR2G sensors were loaded with 10 μg/mL of the first antibody in 10 mM Sodium Acetate pH 6.0 (ForteBio, cat. no. 18-1070) for 600 s and quenched with 1 M ethanolamine pH 8.5 (ForteBio, Cat. #18-1071) for 300 s. After a baseline measurement in Sample Diluent (30 s; FortéBio, Cat. #18-1048), the AR2G biosensors containing immobilized antibodies were loaded for 200 s with His-tagged recombinant human FAPα (R&D Systems, Cat #3715-SE, 100 nM in Sample Diluent) for 200 s. The theoretical molecular mass of His-tagged recombinant human FAPα protein based on the amino acid sequence (86 kDa) was used for calculations. The association (200 s) of a second antibody (5 μg/mL in Sample Diluent) was determined. Sensors were regenerated by exposure to 10 mM glycine pH 2.5 (Riedl-deHaen, Cat. #15527) for 5 s, followed by neutralization in Sample Diluent for 5 s; both steps were repeated twice. Subsequently, the sensors containing immobilized first antibody were used again, starting with the baseline step.
# Data were acquired using Data Acquisition Software v9 (ForteBio) and analyzed with Data Analysis HT Software v9 (ForteBio). The Y-axis was aligned to the start of the association step and Savitzky-Golay filtering was applied. […]
binder,measurement,setting,value
B1,binding result,[1],binds
same,binding result,[2],no binding

# From patent publication US20250002610A1 (Genmab, published 2025)
